Consider 6 molecules from PMC11079029, “Intramolecular autoinhibition regulates the selectivity of PRPF40A tandem WW domains for proline-rich motifs” (Nature Communications, 2024).

The test deals with T1, PRPF40A WW12 (tandem WW domains, residues 141–236) (Homo sapiens, UniProt O75400).
T1 construct: WW12 141–236, WW12long 141–248, and N-ext-WW12 56–236; 6xHis-TEV site (N, cleaved yes); made in house; host or cells: Escherichia coli BL21(DE3)
Briefly: ITC of PRPF40A WW12 with GB1-tagged proline-rich peptides and constructs. It counts as binding. The following applies: for DH: ITC binding enthalpy, as E4; for Kd: ITC as E4, read-out: Kd (mM), Individual values. The text has this: PRPF40A isoform 1 sequences (N-ter 1–310, WW12short 141–223, WW12 141–236, WW12long 141–248, and N-ext-WW12 56–236) were amplified from a purchased DNA fragment (IDT) and cloned using NcoI and KpnI restriction sites into a pETM11 vector encoding 6xHis and TEV cleavage site as a N-terminal tag. SF1 (Pro A 410–468, Pro B 468–539, Pro C 539–594, Pro D 594–639, Pro BC 468–594, Pro CD 539–639, Pro BCD 468–639 and Pro ABCD 410–639) and SF3A1 (Middle Pro 364–413 and C-ter Pro 552–683) constructs were prepared in a similar manner using a pET24 vector with a 6xHis, GB1 and TEV cleavage site as N-terminal fusion cassette. 16-mer SF1 constructs (Table 1) and polyproline peptides (P6, P8, P10, P13, P16, P19, P22, P25, and P29) were cloned in the same pET24 vector with GB1 tag by direct ligation of purchased oligonucleotides (Eurofins). All peptide sequences contained N and C-terminal common residues to avoid boundary effects on binding: TEVsite-GAMSGS-peptide-SGSN. Mutants of PRPF40A WW12 and N-ext-WW12 constructs were prepared by site-directed mutagenesis. The truncated version of PRPF40A WW12 (141-217) was a gift from Dr. María Macías (IRB, Spain). All used oligonucleotides were purchased from Eurofins Genomics and are shown in Supplementary Table 6.
Resuspended cell pellets in 20 mM Tris pH 8.0, 500 mM NaCl, 10 mM imidazole, 0.5 mM TCEP, and protease inhibitors mix (SERVA) were lysed by cell disruption in a French press. Clear lysates, after centrifugation (at 18,000 g) and filtering, were loaded into Ni-NTA resin. The resin was then washed with 20 mM imidazole containing buffer, and the desired protein was eluted with 500 mM imidazole. PRPF40A constructs were then subjected to TEV protease treatment (homemade at a final concentration of ≈50 μg/ml), dialyzed overnight at 4 °C against an imidazole-free buffer, and then loaded again to Ni-NTA resin; desired digested proteins were obtained in the flow-through and wash fractions while uncleaved protein, TEV protease, and impurities remained bound to the resin. Cleaved PRPF40A proteins and GB1-tagged SF1, SF3A1, and polyproline constructs were further purified by size-exclusion chromatography on a HiLoad 16/60 Superdex 75 column (GE Healthcare) equilibrated with 20 mM sodium phosphate, pH 6.5, 100 mM NaCl and 1 mM DTT buffer. For the purification of PRPF40A WW12 in complex with SF1 peptide, cell pellets of recombinant expression for both proteins were mixed and processed together following the Ni-NTA—TEV digestion—reverse Ni-NTA—SEC-75 protocol; where the complex remained bound in a 1:1 stoichiometry throughout the whole purification (corroborated by NMR). Molecular weight of each sample was confirmed by mass spectrometry, purity was checked by PAGE-SDS, and protein concentrations were determined from the aromatic contribution to the UV absorbance spectra at 280 nm.
Experiments were conducted on a MicroCAl PEAQ-ITC (Malvern Instruments, UK) at 25 °C in 20 mM sodium phosphate pH 6.5 and 100 mM NaCl. PRPF40A was titrated into N-terminal GB1 tagged SF1 or polyproline constructs and vice versa with similar results. Protein concentrations in the cell were around 20–40 μM, while in the syringe ranged between 200 and 500 μM. Experiments were performed at least in duplicate with injections of 1.5 μL (0.4 μL for first point) separated by 150 s delays to recover thermal power baseline and continuous stirring in the cell (750 rpm) for correct mixing. The reference cell was filled with water in all experiments. Data were processed by removing the blank experiment (using digested GB1 fusion protein) and adjusted to one-site binding model with Malvern PEAQ-ITC Analysis software (Malvern Instruments, UK).

[1] abbreviates: source data of Fig. 4C,D, individual value 1.
The mark [2] stands for this setting: source data of Fig. 4C,D, individual value 2.
Where [3] appears, read: source data of Fig. 4C, individual value 3.

Like-named read-outs stand apart in the source and are kept apart here.

T1 sequence (O75400 141-236): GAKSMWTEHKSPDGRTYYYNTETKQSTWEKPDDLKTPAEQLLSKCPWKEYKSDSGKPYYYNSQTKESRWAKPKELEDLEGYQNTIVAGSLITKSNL

B1: SF3A1 C-ter Pro: GB1-tagged SF3A1 construct, residues 552–683 (protein)
chain: EIPQQPPPPSSATNIPSSAPPITSVPRPPTMPPPVRTTVVSAVPVMPRPPMASVVRLPPGSVIAPMPPIIHAPRINVVPMPPSAPPIMAPRPPPMIVPTAFVPAPPVAPVPAPAPMPPVHPPPPMEDEPTSK
modifications: left off: His6, N-terminal, state not stated | GB1, N-terminal, kept
On to B1, for which the “DH” value was -68.83 ± 18.8 kcal/mol. For the same molecule, the Kd under setting [1] came out at 0.0238 mM. Further, the Kd under setting [2] stood at 0.0148 mM.

B2: SF1 Pro CD: GB1-tagged SF1 construct, residues 539–639 (protein)
chain: GSIPPWQQQQAAAAASPGAPQMQGNPTMVPLPPGVQPPLPPGAPPPPPPPPPGSAGMMYAPPPPPPPPMDPSNFVTMMGMGVAGMPPFGMPPAPPPPPPQN
modifications: left off: His6, N-terminal, state not stated | GB1, N-terminal, kept
For B2, the “DH” value was -46.2 ± 3.11 kcal/mol. Also, the Kd under setting [1] is 0.00283 mM. In addition, the Kd under setting [2] stood at 0.00432 mM. Moreover, the Kd under setting [3] came out at 0.00426 mM.

B3: SF1 Pro ABCD: GB1-tagged SF1 construct, residues 410–639 (protein)
chain: GHPMQHNPNGPPPPWMQPPPPPMNQGPHPPGHHGPPPMDQYLGSTPVGSGVYRLHQGKGMMPPPPMGMMPPPPPPPSGQPPPPPSGPLPPWQQQQQQPPPPPPPSSSMASSTPLPWQQNTTTTTTSAGTGSIPPWQQQQAAAAASPGAPQMQGNPTMVPLPPGVQPPLPPGAPPPPPPPPPGSAGMMYAPPPPPPPPMDPSNFVTMMGMGVAGMPPFGMPPAPPPPPPQN
modifications: left off: His6, N-terminal, state not stated | GB1, N-terminal, kept
As for B3, the “DH” value is -67.04 ± 9.68 kcal/mol. The Kd under setting [1] was found to be 0.00541 mM. For the same molecule, the Kd under setting [2] came out at 0.0044 mM.

B4: SF1 Pro B: GB1-tagged SF1 construct, residues 468–539 (protein)
chain: GMMPPPPMGMMPPPPPPPSGQPPPPPSGPLPPWQQQQQQPPPPPPPSSSMASSTPLPWQQNTTTTTTSAGTG
modifications: left off: His6, N-terminal, state not stated | GB1, N-terminal, kept
Take B4: the “DH” value is -17.3 ± 3.27 kcal/mol.

B5: SF1 Pro BC: GB1-tagged SF1 construct, residues 468–594 (protein)
chain: GMMPPPPMGMMPPPPPPPSGQPPPPPSGPLPPWQQQQQQPPPPPPPSSSMASSTPLPWQQNTTTTTTSAGTGSIPPWQQQQAAAAASPGAPQMQGNPTMVPLPPGVQPPLPPGAPPPPPPPPPGSAG
modifications: left off: His6, N-terminal, state not stated | GB1, N-terminal, kept
As to B5, the “DH” value is -28.99 ± 1.65 kcal/mol. Besides, the Kd under setting [1] is 0.00363 mM. For the same molecule, the Kd under setting [2] amounted to 0.00776 mM. Also, under setting [3], the Kd is 0.00911 mM.

B6: SF1 Pro BCD: GB1-tagged SF1 construct, residues 468–639 (protein)
chain: GMMPPPPMGMMPPPPPPPSGQPPPPPSGPLPPWQQQQQQPPPPPPPSSSMASSTPLPWQQNTTTTTTSAGTGSIPPWQQQQAAAAASPGAPQMQGNPTMVPLPPGVQPPLPPGAPPPPPPPPPGSAGMMYAPPPPPPPPMDPSNFVTMMGMGVAGMPPFGMPPAPPPPPPQN
modifications: left off: His6, N-terminal, state not stated | GB1, N-terminal, kept
Regarding B6, the “DH” value was -65.49 ± 8.6 kcal/mol. Moreover, under setting [1], the Kd turned out to be 0.00293 mM. Besides, under setting [2], the dissociation constant Kd stood at 0.00436 mM.

In general, Kd refers to the equilibrium constant for the complex coming apart.
